A word on the Ki: it is a dissociation constant, usually derived from enzyme kinetics or from competition with a known ligand. The low end stands for higher affinity, the high end for lower affinity.

The target of one assay is T1, MC1RL-Cy5.
T1 chain: {Butanoyl(4-Ph)}-H[dF]RWGK([Mpa-Cy5])-NH2
Kind of assay: competition binding with Eu-NDP-α-MSH on A375/hMC1R cells.

Another assay concerns the target T2, MC1RL-800.
T2 chain: {Butanoyl(4-Ph)}-H[dF]RWGK([Mpa-IRDye800CW′])-NH2
The assay is described as above.

Square brackets hold non-standard residues; d marks the D form. Primed or numbered codes have the meaning given here. Side chains are listed from the residue outwards. * marks the point of attachment. IRDye800CW′ = near-infrared fluorescent dye (LiCor), attached as the maleimide; Cy5 = Cy5 near-infrared fluorescent dye; Butanoyl(4-Ph) = O=C(CCCc1ccccc1)*; Mpa = O=C(O)CCS

B1: MC1R (protein)
chain: MAVQGSQRRLLGSLNSTPTAIPQLGLAANQTGARCLEVSISDGLFLSLGLVSLVENALVVATIAKNRNLHSPMYCFICCLALSDLLVSGSNVLETAVILLLEAGALVARAAVLQQLDNVIDVITCSSMLSSLCFLGAIAVDRYISIFYALRYHSIVTLPRARRAVAAIWVASVVFSTLFIAYYDHVAVLLCLVVFFLAMLVLMAVLYVHMLARACQHAQGIARLHKRQRPVHQGFGLKGAVTLTILLGIFFLCWGPFFLHLTLIVLCPEHPTCGCIFKNFNLFLALIICNAIIDPLIYAFHSQELRRTLKEVLTCSW
Take B1: the Ki was determined as 300 pM with MC1RL-Cy5 and 400 pM in the assay with MC1RL-800.
